According to the supplement of paper PMC11246515:
± gives the standard deviation of the averaged measurements.

Experiment: total protein half-life in vivo (active degradation + dilution); higher = more stable protein
[1] = E. coli NCM3722 delta-clpP delta-lon delta-hslV, growth: N-lim chemostat, doubling time 6 h
[2] = E. coli NCM3722 delta-clpP, growth: N-lim chemostat, doubling time 6 h
[3] = E. coli NCM3722 delta-hslV, growth: N-lim chemostat, doubling time 6 h
[4] = E. coli NCM3722 delta-smpB, growth: N-lim chemostat, doubling time 6 h
[5] = wild type E. coli NCM3722, growth: C-lim chemostat, doubling time 3 h
[6] = wild type E. coli NCM3722, growth: C-lim chemostat, doubling time 6 h
[7] = wild type E. coli NCM3722, growth: C-lim chemostat, doubling time 12 h
[8] = wild type E. coli NCM3722, growth: N-lim chemostat, doubling time 6 h
[9] = wild type E. coli NCM3722, growth: N-lim chemostat, doubling time 12 h
[10] = wild type E. coli NCM3722, growth: P-lim chemostat, doubling time 6 h
[11] = wild type E. coli NCM3722, growth: P-lim chemostat, doubling time 12 h
[12] = E. coli NCM3722 delta-lon, growth: N-lim chemostat, doubling time 6 h

Sequence	total protein half-life in vivo [1] [h]	total protein half-life in vivo [2] [h]	total protein half-life in vivo [3] [h]	total protein half-life in vivo [4] [h]	total protein half-life in vivo [5] [h]	total protein half-life in vivo [6] [h]	total protein half-life in vivo [7] [h]	total protein half-life in vivo [8] [h]	total protein half-life in vivo [9] [h]	total protein half-life in vivo [10] [h]	total protein half-life in vivo [11] [h]	total protein half-life in vivo [12] [h]
MKPIFSRGPSLQIRLILAVLVALGIIIADSRLGTFSQIRTYMDTAVSPFYFVSNAPRELLDGVSQTLASRDQLELENRALRQELLLKNSELLMLGQYKQENARLRELLGSPLRQDEQKMVTQVISTVNDPYSDQVVIDKGSVNGVYEGQPVISDKGVVGQVVAVAKLTSRVLLICDATHALPIQVLRNDIRVIAAGNGCTDDLQLEHLPANTDIRVGDVLVTSGLGGRFPEGYPVAVVSSVKLDTQRAYTVIQARPTAGLQRLRYLLLLWGADRNGANPMTPEEVHRVANERLMQMMPQVLPSPDAMGPKLPEPATGIAQPTPQQPATGNAATAPAAPTQPAANRSPQRATPPQSGAQPPARAPGGQ	5.092 ± 0.007	4.62 ± 0.051	4.54 ± 0.24	4.76 ± 0.74	2.85 ± 0.07	5.57 ± 1.1	10.25 ± 0.089	4.21 ± 0.1	8.66 ± 0.23	4.98 ± 0.25	10.5 ± 0.18	
MKPNIHPEYRTVVFHDTSVDEYFKIGSTIKTDREIELDGVTYPYVTIDVSSKSHPFYTGKLRTVASEGNVARFTQRFGRFVSTKKGA [P0A7N1]				2.8	2.784 ± 0.022	5.71 ± 0.51	9.33			6.22		
MKPQVYHVDAFTSQPFRGNSAGVVFPADNLSEAQMQLIARELGHSETAFLLHSDDSDVRIRYFTPTVEVPICGHATVAAHYVRAKVLGLGNCTIWQTSLAGKHRVTIEKHNDDYRISLEQGTPGFEPPLEGETRAAIINALHLTEDDILPGLPIQVATTGHSKVMIPLKPEVDIDALSPDLNALTAISKKIGCNGFFPFQIRPGKNETDGRMFSPAIGIVEDPVTGNANGPMGAWLVHHNVLPHDGNVLRVKGHQGRALGRDGMIEVTVTIRDNQPEKVTISGTAVILFHAEWAIEL	> 8	4.73		6.56								
MKPTSVIIMDTHPIIRMSIEVLLQKNSELQIVLKTDDYRITIDYLRTRPVDLIIMDIDLPGTDGFTFLKRIKQIQSTVKVLFLSSKSECFYAGRAIQAGANGFVSKCNDQNDIFHAVQMILSGYTFFPSETLNYIKSNKCSTNSSTVTVLSNREVTILRYLVSGLSNKEIADKLLLSNKTVSAHKSNIYGKLGLHSIVELIDYAKLYELI [P0AEL8]	5.67 ± 0.072											
MKPYQRQFIEFALSKQVLKFGEFTLKSGRKSPYFFNAGLFNTGRDLALLGRFYAEALVDSGIEFDLLFGPAYKGIPIATTTAVALAEHHDLDLPYCFNRKEAKDHGEGGNLVGSALQGRVMLVDDVITAGTAIRESMEIIQANGATLAGVLISLDRQERGRGEISAIQEVERDYNCKVISIITLKDLIAYLEEKPEMAEHLAAVKAYREEFGV [P0A7E3]	4.07 ± 0.75	3.84 ± 0.28	3.61	3.83 ± 0.08	2.87 ± 0.3	5.31 ± 0.18	9.3 ± 3.5	3.93 ± 0.33	6.396 ± 0.051	5.62 ± 0.25	10.7 ± 0.39	4.35 ± 0.61
MKQALRVAFGFLILWASVLHAEVRIVIDSGVDSGRPIGVVPFQWAGPGAAPEDIGGIVAADLRNSGKFNPLDRARLPQQPGSAQEVQPAAWSALGIDAVVVGQVTPNPDGSYNVAYQLVDTGGAPGTVLAQNSYKVNKQWLRYAGHTASDEVFEKLTGIKGAFRTRIAYVVQTNGGQFPYELRVSDYDGYNQFVVHRSPQPLMSPAWSPDGSKLAYVTFESGRSALVIQTLANGAVRQVASFPRHNGAPAFSPDGSKLAFALSKTGSLNLYVMDLASGQIRQVTDGRSNNTEPTWFPDSQNLAFTSDQAGRPQVYKVNINGGAPQRITWEGSQNQDADVSSDGKFMVMVSSNGGQQHIAKQDLATGGVQVLSSTFLDETPSLAPNGTMVIYSSSQGMGSVLNLVSTDGRFKARLPATDGQVKFPAWSPYL [P0A855]	5.6 ± 0.21	6.39 ± 0.61		6.07 ± 0.73	3.14 ± 0.04	6.59 ± 0.57	11.3 ± 0.41	6.31 ± 0.17	13.8 ± 1.4	5.89 ± 0.3	13.05 ± 0.13	6.28 ± 0.33
MKQKVVSIGDINVANDLPFVLFGGMNVLESRDLAMRICEHYVTVTQKLGIPYVFKASFDKANRSSIHSYRGPGLEEGMKIFQELKQTFGVKIITDVHEPSQAQPVADVVDVIQLPAFLARQTDLVEAMAKTGAVINVKKPQFVSPGQMGNIVDKFKEGGNEKVILCDRGANFGYDNLVVDMLGFSIMKKVSGNSPVIFDVTHALQCRDPFGAASGGRRAQVAELARAGMAVGLAGLFIEAHPDPEHAKCDGPSALPLAKLEPFLKQMKAIDDLVKGFEELDTSK [P0A715]	6.1 ± 0.77	5.88 ± 1.5	5.22 ± 0.14	4.85 ± 0.15	3.15 ± 0.56	6.05 ± 0.51	10.3 ± 1.2	5.01 ± 0.13	9.03 ± 0.37	5.58 ± 0.48	12.9 ± 1.5	6.19 ± 0.93
MKQLTILGSTGSIGCSTLDVVRHNPEHFRVVALVAGKNVTRMVEQCLEFSPRYAVMDDEASAKLLKTMLQQQGSRTEVLSGQQAACDMAALEDVDQVMAAIVGAAGLLPTLAAIRAGKTILLANKESLVTCGRLFMDAVKQSKAQLLPVDSEHNAIFQSLPQPIQHNLGYADLEQNGVVSILLTGSGGPFRETPLRDLATMTPDQACRHPNWSMGRKISVDSATMMNKGLEYIEARWLFNASASQMEVLIHPQSVIHSMVRYQDGSVLAQLGEPDMRTPIAHTMAWPNRVNSGVKPLDFCKLSALTFAAPDYDRYPCLKLAMEAFEQGQAATTALNAANEITVAAFLAQQIRFTDIAALNLSVLEKMDMREPQCVDDVLSVDANAREVARKEVMRLAS	4.22 ± 0.36	3.69 ± 0.044	4.05 ± 0.23	3.84 ± 0.34	2.81 ± 0.21	5.32 ± 0.24	9.19 ± 0.66	3.64 ± 0.13	5.81 ± 0.34	5.88 ± 0.068	9.74 ± 0.61	3.93 ± 0.36
